Key:
[1] = test system: DLL3-positive human small cell lung cancer cell line NCI-H510A; experiment: In vivo antitumor effect, NCI-H510A xenograft (Example 22-1); conditions: nude mice, 0.2 mg/kg intravenous, single dose, FIG. 26
From the text: (§1) Substantially the same protocol as in Example 17 was used.
(§2) The DLL3-positive human small cell lung cancer cell line NCI-H510A (ATCC) was suspended in Matrigel (Corning Inc.), and the cell suspension was subcutaneously inoculated at a dose of 2.3×10^6 cells to the right flank region of each female nude mouse. After the tumors were established, the mice were randomly grouped (6 mice per group). On the day of grouping, each of the 2 antibody-drug conjugates (H2-C8-A-3-Conjugate, H10-O18-A-3-Conjugate), the reference anti-DLL3 antibody-Conjugate (SC16LD6.5), or anti-LPS antibody-Conjugate was intravenously administered at a dose of 0.2 mg/kg to the tail of each mouse. The abscissa depicts the days after administration, and the ordinate depicts estimated tumor volume. The error range depicts a SE value.

[2] = test system: DLL3-positive human small cell lung cancer cell line NCI-H510A; experiment: In vivo antitumor effect, NCI-H510A xenograft (Example 17-3); conditions: BALB/c nude mice, 0.2 mg/kg intravenous, single dose on Day 15, FIG. 21
Description: The antitumor effects of the antibody-drug conjugates were evaluated using animal models derived from immunodeficient mice by the inoculation of DLL3-positive human tumor cell line cells. 4- to 5-week-old BALB/c nude mice (CAnN. Cg-Foxn1 [nu]/CrlCrlj [Foxn1nu/Foxn1nu], Charles River Laboratories Japan inc.) were acclimatized for 3 days or longer under SPF conditions before use in the experiment. The mice were fed with a sterilized solid diet (FR-2, Funabashi Farms Co., Ltd) and given sterilized tap water (which had been prepared by adding a 5 to 15 ppm sodium hypochlorite solution to tap water). The long diameter and short diameter of the inoculated tumor were measured twice a week using electronic digital calipers (CD-15CX, Mitutoyo Corp.), and the volume of the tumor was then calculated according to the following expression.
Tumor volume (mm^3=½×Long diameter (mm)×[Short diameter (mm)]^2
Each antibody-drug conjugate was diluted with ABS buffer (10 mM acetate buffer, 5% sorbitol, pH 5.5) (Nacalai Tesque, Inc.), and the dilution was intravenously administered at a dose shown in each study to the tail of each mouse. ABS buffer was administered in the same manner as above to a control group (vehicle group). Six mice per group were used in the experiment. The group with the over 3000 mm^3 estimated tumor volume were euthanized at that time. […]

[3] = test system: DLL3-positive human small cell lung cancer cell line NCI-H82; experiment: In vivo antitumor effect, NCI-H82 xenograft (Example 22-3); conditions: nude mice, 0.4 mg/kg intravenous, single dose, FIG. 28
From the text: as §1
as §2, with “NCI-H82” for “NCI-H510A”, “1×10^6” for “2.3×10^6”, “(SC16LD6.5)” for “(SC16LD6.5),”, “0.4” for “0.2”

B1: SC16LD6.5: anti-DLL3 ADC: antibody hSC16.56 (SC16) conjugated with drug linker SG3249 by maleimide conjugation (conjugate, chains of the INN, looked up)
VH: QVQLVQSGAEVKKPGASVKVSCKASGYTFTNYGMNWVRQAPGQGLEWMGWINTYTGEPTYADDFKGRVTMTTDTSTSTAYMELRSLRSDDTAVYYCARIGDSSPSDYWGQGTLVTVSS
VL: EIVMTQSPATLSVSPGERATLSCKASQSVSNDVVWYQQKPGQAPRLLIYYASNRYTGIPARFSGSGSGTEFTLTISSLQSEDFAVYYCQQDYTSPWTFGQGTKLEIK
modifications: SG3249 PBD drug-linker (tesirine)
notes: anti-DLL3 ADC: antibody hSC16.56 (SC16) conjugated with drug linker SG3249 by maleimide conjugation
B1 was tested, and the “antitumor effect (estimated tumor volume)” value (from here on “antitumor effect”) [1] was “some tumor growth inhibition without tumor regression effect”, the “antitumor effect” value [2] was “some tumor growth inhibition without tumor regression effect” and the “antitumor effect” value [3] was “some tumor growth inhibition without tumor regression effect”.

From patent US20240115720A1, “ANTIBODY-PYRROLOBENZODIAZEPINE DERIVATIVE CONJUGATE” (MEMORIAL SLOAN KETTERING CANCER CENTER, priority 2021, published 2024)
